From patent publication US20230357431A1
Where two headings read alike, the source gives them in different places.

How the values were obtained:
[1] = molecular target: VH2VL1-CD8ATD-CD137CSD-CD3zSSD fusion (anti-P329G chimeric antigen receptor)
[2] = molecular target: VL1VH3-CD8ATD-CD137CSD-CD3zSSD fusion (anti-P329G chimeric antigen receptor, VLVH orientation)
[3] = molecular target: VH3VL1-CD8ATD-CD137CSD-CD3zSSD fusion (anti-P329G chimeric antigen receptor)
[4] = molecular target: VH2VL1-CD8ATD-CD137CSD-CD3zSSD fusion (anti-P329G chimeric antigen receptor); remark: listed apart in the source
[5] = molecular target: VH1VL1-CD8ATD-CD137CSD-CD3zSSD fusion (anti-P329G chimeric antigen receptor)
Sequence of VH1VL1-CD8ATD-CD137CSD-CD3zSSD fusion (anti-P329G chimeric antigen receptor) (chain, as listed by the source P329G P329G): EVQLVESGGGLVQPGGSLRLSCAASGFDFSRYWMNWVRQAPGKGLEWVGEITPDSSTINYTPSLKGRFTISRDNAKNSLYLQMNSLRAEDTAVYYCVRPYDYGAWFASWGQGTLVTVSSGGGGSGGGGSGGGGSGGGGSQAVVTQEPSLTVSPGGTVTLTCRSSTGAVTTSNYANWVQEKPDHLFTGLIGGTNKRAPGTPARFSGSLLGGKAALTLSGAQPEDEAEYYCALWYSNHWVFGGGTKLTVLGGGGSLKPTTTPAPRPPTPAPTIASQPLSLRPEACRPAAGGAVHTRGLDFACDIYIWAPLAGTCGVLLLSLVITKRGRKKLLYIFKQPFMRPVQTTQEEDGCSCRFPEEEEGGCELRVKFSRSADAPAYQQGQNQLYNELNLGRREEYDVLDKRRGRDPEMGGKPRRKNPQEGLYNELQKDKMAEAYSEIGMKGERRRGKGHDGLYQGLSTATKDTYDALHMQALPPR

[6] = molecular target: VL1VH3-CD8ATD-CD137CSD-CD3zSSD fusion (anti-P329G chimeric antigen receptor, VLVH orientation); remark: listed apart in the source
[7] = molecular target: VH3VL1-CD8ATD-CD137CSD-CD3zSSD fusion (anti-P329G chimeric antigen receptor); remark: listed apart in the source
[8] = molecular target: VH1VL1-CD8ATD-CD137CSD-CD3zSSD fusion (anti-P329G chimeric antigen receptor); remark: listed apart in the source
[9] = molecular target: VL1VH3-CD8ATD-CD137CSD-CD3zSSD fusion (anti-P329G chimeric antigen receptor, VLVH orientation); remark: listed apart in the source
[10] = molecular target: VH2VL1-CD8ATD-CD137CSD-CD3zSSD fusion (anti-P329G chimeric antigen receptor); remark: listed apart in the source
[11] = molecular target: VH1VL1-CD8ATD-CD137CSD-CD3zSSD fusion (anti-P329G chimeric antigen receptor); remark: listed apart in the source
[12] = molecular target: VL1VH3-CD8ATD-CD137CSD-CD3zSSD fusion (anti-P329G chimeric antigen receptor, VLVH orientation); remark: listed apart in the source
[13] = molecular target: VH3VL1-CD8ATD-CD137CSD-CD3zSSD fusion (anti-P329G chimeric antigen receptor); remark: listed apart in the source
[14] = molecular target: VH2VL1-CD8ATD-CD137CSD-CD3zSSD fusion (anti-P329G chimeric antigen receptor); remark: listed apart in the source
[15] = molecular target: VH1VL1-CD8ATD-CD137CSD-CD3zSSD fusion (anti-P329G chimeric antigen receptor); remark: listed apart in the source
[16] = molecular target: VL1VH3-CD8ATD-CD137CSD-CD3zSSD fusion (anti-P329G chimeric antigen receptor, VLVH orientation); remark: listed apart in the source
[17] = molecular target: VH3VL1-CD8ATD-CD137CSD-CD3zSSD fusion (anti-P329G chimeric antigen receptor); remark: listed apart in the source

Sequence of VH2VL1-CD8ATD-CD137CSD-CD3zSSD fusion (anti-P329G chimeric antigen receptor) (chain, as listed by the source P329G P329G): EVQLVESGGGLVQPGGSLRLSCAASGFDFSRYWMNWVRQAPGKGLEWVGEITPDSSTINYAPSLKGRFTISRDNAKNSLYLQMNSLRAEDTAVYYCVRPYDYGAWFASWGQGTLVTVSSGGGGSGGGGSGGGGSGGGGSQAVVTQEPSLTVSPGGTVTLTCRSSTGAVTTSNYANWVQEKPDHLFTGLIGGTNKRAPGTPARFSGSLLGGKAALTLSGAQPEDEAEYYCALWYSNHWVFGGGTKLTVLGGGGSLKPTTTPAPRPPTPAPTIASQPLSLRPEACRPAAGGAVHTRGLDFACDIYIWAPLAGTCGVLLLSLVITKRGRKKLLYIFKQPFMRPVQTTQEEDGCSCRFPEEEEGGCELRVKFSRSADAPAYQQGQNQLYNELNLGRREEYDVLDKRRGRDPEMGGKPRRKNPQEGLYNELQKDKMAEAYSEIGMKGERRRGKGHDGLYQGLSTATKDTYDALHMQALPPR
Sequence of VH3VL1-CD8ATD-CD137CSD-CD3zSSD fusion (anti-P329G chimeric antigen receptor) (chain, as listed by the source P329G P329G): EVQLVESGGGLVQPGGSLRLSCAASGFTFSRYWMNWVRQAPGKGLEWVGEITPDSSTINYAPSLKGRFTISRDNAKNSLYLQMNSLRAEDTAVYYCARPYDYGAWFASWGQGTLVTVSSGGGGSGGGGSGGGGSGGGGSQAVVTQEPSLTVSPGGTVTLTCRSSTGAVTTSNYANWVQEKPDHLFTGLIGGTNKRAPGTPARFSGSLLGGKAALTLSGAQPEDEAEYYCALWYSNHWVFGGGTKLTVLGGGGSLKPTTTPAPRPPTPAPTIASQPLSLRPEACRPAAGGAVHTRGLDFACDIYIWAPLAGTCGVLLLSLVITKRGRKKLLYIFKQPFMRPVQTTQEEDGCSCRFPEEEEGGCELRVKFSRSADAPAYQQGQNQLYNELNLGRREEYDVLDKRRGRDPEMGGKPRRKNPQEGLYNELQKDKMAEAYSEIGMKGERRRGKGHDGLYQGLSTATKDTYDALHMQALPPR
Sequence of VL1VH3-CD8ATD-CD137CSD-CD3zSSD fusion (anti-P329G chimeric antigen receptor, VLVH orientation) (chain, as listed by the source P329G P329G): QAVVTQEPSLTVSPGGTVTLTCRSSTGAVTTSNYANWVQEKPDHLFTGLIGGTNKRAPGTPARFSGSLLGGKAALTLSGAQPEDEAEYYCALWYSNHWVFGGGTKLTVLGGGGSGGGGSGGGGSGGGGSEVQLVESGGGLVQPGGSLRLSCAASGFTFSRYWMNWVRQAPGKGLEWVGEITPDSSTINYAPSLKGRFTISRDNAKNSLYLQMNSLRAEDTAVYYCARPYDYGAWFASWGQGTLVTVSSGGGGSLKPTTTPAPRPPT

## DP47 P329G LALA (antibody)
[1]
  EC50, Jurkat NFAT luciferase reporter (RLU/s), WSUDLCL2 target cells 5:1, non-targeting antibody; the curve stays at about 60 to 90 RLU/s (no activation), so the fitted value has no meaning: 293 pM
[2]
  EC50, Jurkat NFAT luciferase reporter (RLU/s), WSUDLCL2 target cells 5:1, non-targeting antibody; the curve stays at about 60 to 110 RLU/s (no activation), so the fitted value has no meaning: 7420 pM
[3]
  EC50, Jurkat NFAT luciferase reporter (RLU/s), WSUDLCL2 target cells 5:1, non-targeting antibody; flat at about 90 RLU/s with a small rise to about 190 RLU/s at the last point, no plateau: 43200 pM

## anti-CD20 (GA101) D246A P329G IgG1 (antibody)
[4]
  EC50, Jurkat NFAT luciferase reporter (RLU/s), WSUDLCL2 target cells 5:1; sigmoid curve with upper plateau: 10.4 pM
[5]
  EC50, Jurkat NFAT luciferase reporter (RLU/s), WSUDLCL2 target cells 5:1; sigmoid curve with upper plateau: 8.14 pM
[6]
  EC50, Jurkat NFAT luciferase reporter (RLU/s), WSUDLCL2 target cells 5:1; sigmoid curve with upper plateau: 6.19 pM
[7]
  EC50, Jurkat NFAT luciferase reporter (RLU/s), WSUDLCL2 target cells 5:1; sigmoid curve with upper plateau: 5.82 pM

## anti-CD20 (GA101) LALA IgG1 (antibody)
[8]
  EC50, Jurkat NFAT luciferase reporter (RLU/s), WSUDLCL2 target cells 5:1; the curve is flat (no activation), so the fitted value has no meaning: 0.0485 pM
[9]
  EC50, Jurkat NFAT luciferase reporter (RLU/s), WSUDLCL2 target cells 5:1; the curve is flat (no activation), so the fitted value has no meaning: 0.000234 pM

## anti-CD20 (GA101) P329G LALA IgG1 (antibody)
[10]
  EC50, Jurkat NFAT luciferase reporter (RLU/s), WSUDLCL2 target cells 5:1; sigmoid curve with upper plateau: 6.93 pM
[11]
  EC50, Jurkat NFAT luciferase reporter (RLU/s), WSUDLCL2 target cells 5:1; sigmoid curve with upper plateau: 8.1 pM
[12]
  EC50, Jurkat NFAT luciferase reporter (RLU/s), WSUDLCL2 target cells 5:1; sigmoid curve with upper plateau: 6.58 pM
[13]
  EC50, Jurkat NFAT luciferase reporter (RLU/s), WSUDLCL2 target cells 5:1; sigmoid curve with upper plateau: 7.57 pM

## anti-CD20 (GA101) wild type IgG1 (antibody)
[14]
  EC50, Jurkat NFAT luciferase reporter (RLU/s), WSUDLCL2 target cells 5:1; the curve is flat (no activation), so the fitted value has no meaning: 0.000119 pM
[15]
  EC50, Jurkat NFAT luciferase reporter (RLU/s), WSUDLCL2 target cells 5:1; the curve is flat (no activation), so the fitted value has no meaning: 2.19 pM
[16]
  EC50, Jurkat NFAT luciferase reporter (RLU/s), WSUDLCL2 target cells 5:1; the curve is flat (no activation), so the fitted value has no meaning: 78.3 pM
[17]
  EC50, Jurkat NFAT luciferase reporter (RLU/s), WSUDLCL2 target cells 5:1; the curve is flat (no activation), so the fitted value has no meaning: 85 pM
